These results are taken from publication PMC7432094, “Flexible NAD^+ Binding in Deoxyhypusine Synthase Reflects the Dynamic Hypusine Modification of Translation Factor IF5A” (International Journal of Molecular Sciences, 2020).

The term stoichiometry N denotes the number of molecules, sites or subunits per partner or assembly.

The data set deals with the molecule itself. Put plainly: crystal structure; sitting drop, 20 °C, 100 mM phosphate-citrate pH 4.8, 32% ethanol, 5% PEG 1000; four PhoDHS molecules in the asymmetric unit, dimer of dimers with point group D2.

B1: deoxyhypusine synthase from Pyrococcus horikoshii OT3 (enzyme, UniProt O50105 1-342, looked up)
chain: MKAKDIVLKKSEKIEGVEVKGPWLDDAQSLEEVVSYYYRIGFQATHLGRAIEIWRKVEEKRERGEEIRVFLGYTSNIISSGLREIIAWLVKEKKVDVIVTTAGGVEEDFIKSLKPFILGDWEVDDAELRKKGVNRIGNIFVPNDRYIEFEKYMIPFFERVLKIEEKLSRPLTASEFIYEMGRYMDEKLGKEKEKSVIYWAYKNNIPIFCPAITDGSIGDMLYFFKEERRDSRLIIDIANDIVKLNNLAITAKETASIILGGSLPKHAIINANLFRGGTDYAIYISTAVPWDGSLSGAPPREGVSWGKIKAKADYVEVWGDATLIFPILVWMVMKARGQGYAQ
notes: deoxyhypusine synthase (DHS), Pyrococcus horikoshii OT3, UniProtKB O50105, residues 1-342 (342 residues in all, 39 kDa); Homotetramer (dimer of dimers, D2); The His6 tag was removed with TEV protease at the site Glu-Asn-Leu-Tyr-Phe-Gln-Gly, so a residue of the site may remain at the N-terminus; also called PhoDHS; DHS; not shown: His6, N-terminal, cleaved
With B1, the “stoichiometry N” value is 4.
